Our source for the Kd values is paper PMC9667838.

In this assay the target is Secreted form of the peptidase domain (PD) of ACE2 (human). In words: BLI.

Take “Receptor binding domain (RBD) of the spike glycoprotein of SARS-CoV-2 Omicron subvariant BA.2 (from UniProt P0DTC2 319-541) (domain or fragment)”: the Kd was determined as 4.15 nM.
Turning to “Receptor binding domain (RBD) of the spike glycoprotein of SARS-CoV-2 Omicron subvariants BA.4/BA.5 (from UniProt P0DTC2 319-541) (domain or fragment)”, the equilibrium dissociation constant (Kd) was 4.55 nM.
